± gives the uncertainty stated by the source.
Test: self-splicing fitness, log relative to wild type (ln ratio); higher = more splicing; Tetrahymena group I intron in knt gene, E. coli kanamycin selection, DiMSum; sequences stand for … in CUCUCU…GGAGGGAAAAGUUAUCAGGCAUGCACCUGGUAGCUAGUCUUUAAACCAAUAGAUUGCAUCGGUUUAAAAGGCAAGACCGUCAAAUUGCGGGAAAGGGGUCAACAGCCGUUCAGUACCAAGUCUCAGGGGAAACUUUGAGAUGGCCUUGCAAAGGGUAUGGUAAUAAGCUGACGGACAUGGUCCUAACCACGCAGCCAAGUCCUAAGUCAACAGAUCUUCUGUUGAUAUGGAUGCAGUUCACAGACUAAAUGUCGGUCGGGGAAGAUGUAUUCUUCUCAUAAGAUAUAGUCGGACCUCUCCUUAAUGGGAGCUAGCGGAUGAAGUGAUGCAACACUGGAGCCGCUGGGAACUAAUUUGUAUGCGAAAGUAUAUUGAUUAGUUUUGGAGUACUCGUGGUCG
Method in brief: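 DiMSum derived fitness as the error-weighted combination of fold changes across replicates, kanamycin versus no kanamycin, normalised to wild type. E. coli BL21(DE3) held the library, which randomised all eight P1ex-region intron nucleotides within the knt kanamycin-resistance gene on pET-22b(+). Six replicate transformations grew overnight at 37°C or 30°C on LB agar with or without 25 μg/mL kanamycin, also containing 100 μg/mL carbenicillin, 50 μM IPTG and 0.2% rhamnose, and pooled colonies were amplicon-sequenced on an Illumina HiSeq 2500.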

Row | Sequence | self-splicing fitness (ln) (30 °C) | self-splicing fitness (ln) (37 °C)
1 | AGCAAGCAAUAUUACGACCA | -0.697 ± 0.09 | -0.178 ± 0.12
2 | AGCAAGCAAUAUUACGAGAU | -3.64 ± 0.24 | -1.27 ± 0.21
3 | AGCAAGCAAUAUUACGAGCC | -1.65 ± 0.37 | 
4 | AGCAAGCAAUAUUACGAUGG | -2.63 ± 0.15 | -2.01 ± 0.2
5 | AGCAAGCAAUAUUACGCACC | -0.646 ± 0.14 | 0.533 ± 0.18
6 | AGCAAGCAAUAUUACGCAGA | -2.73 ± 0.22 | -2.05 ± 0.18
7 | AGCAAGCAAUAUUACGCAGG | -2.95 ± 0.16 | -1.63 ± 0.12
8 | AGCAAGCAAUAUUACGCAGU | -3.01 ± 0.18 | -1.28 ± 0.14
9 | AGCAAGCAAUAUUACGCCAC | -3.17 ± 0.28 | -3.33 ± 0.28
10 | AGCAAGCAAUAUUACGCUGG | -4.34 ± 0.41 | -2.95 ± 0.26
11 | AGCAAGCAAUAUUACGCUUG | -4.25 ± 0.28 | -1.29 ± 0.2
12 | AGCAAGCAAUAUUACGGAGC | -2.67 ± 0.19 | -1.31 ± 0.24
13 | AGCAAGCAAUAUUACGGCGC | -0.695 ± 0.095 | 0.164 ± 0.16
14 | AGCAAGCAAUAUUACGGGAA | -2.65 ± 0.14 | -1.03 ± 0.1
15 | AGCAAGCAAUAUUACGGGUG | -1.36 ± 0.056 | -0.789 ± 0.076
16 | AGCAAGCAAUAUUACGUAAU | -1.99 ± 0.1 | -1.27 ± 0.12
17 | AGCAAGCAAUAUUACGUGGU | -2.79 ± 0.12 | -3.13 ± 0.18
18 | AGCAAGCAAUAUUACGUUGC | -3.69 ± 0.19 | -1.08 ± 0.16
19 | AGCCAGCAAUAUUACGACAU | -1.512 ± 0.012 | -0.664 ± 0.032
20 | AGCCAGCAAUAUUACGACCC | -1.46 ± 0.34 | -0.503 ± 0.24
21 | AGCCAGCAAUAUUACGACGA | -1.97 ± 0.1 | -1.76 ± 0.12
22 | AGCCAGCAAUAUUACGAGCU | -3.38 ± 0.21 | -3 ± 0.35
23 | AGCCAGCAAUAUUACGCAAC | -4.16 ± 0.32 | -1.4 ± 0.23
24 | AGCCAGCAAUAUUACGCACA | -1.96 ± 0.13 | -0.518 ± 0.11
25 | AGCCAGCAAUAUUACGCAGC |  | -1.21 ± 0.28
26 | AGCCAGCAAUAUUACGCAUU | -1.65 ± 0.062 | -1.25 ± 0.075

Row | Sequence | self-splicing fitness (ln) (30 °C) | self-splicing fitness (ln) (37 °C)
27 | AGCCAGCAAUAUUACGCCAC |  | -3.04 ± 0.43
28 | AGCCAGCAAUAUUACGCCGA |  | -0.449 ± 0.29
29 | AGCCAGCAAUAUUACGCUAC | -2.52 ± 0.18 | -0.749 ± 0.17
30 | AGCCAGCAAUAUUACGGAAG | -1.57 ± 0.1 | 0.171 ± 0.12
31 | AGCCAGCAAUAUUACGGCCG | -1.29 ± 0.11 | -0.262 ± 0.13
32 | AGCCAGCAAUAUUACGGCUG | -2.52 ± 0.17 | -1.53 ± 0.2
33 | AGCCAGCAAUAUUACGGGAG | -2.56 ± 0.11 | -2.17 ± 0.14
34 | AGCCAGCAAUAUUACGGUUG | -0.979 ± 0.051 | -0.86 ± 0.075
35 | AGCCAGCAAUAUUACGUAAA | -3.03 ± 0.12 | -1.55 ± 0.13
36 | AGCCAGCAAUAUUACGUACA | -3.16 ± 0.22 | -2.5 ± 0.27
37 | AGCCAGCAAUAUUACGUCUU | -1.23 ± 0.072 | -0.744 ± 0.089
38 | AGCCAGCAAUAUUACGUGAU | -2.31 ± 0.075 | -1.35 ± 0.098
39 | AGCCAGCAAUAUUACGUGUA | -3.52 ± 0.14 | -1.34 ± 0.11
40 | AGCCAGCAAUAUUACGUUAC | -4.34 ± 0.31 | -1.88 ± 0.21
41 | AGCCAGCAAUAUUACGUUCA | -3.21 ± 0.15 | -2.72 ± 0.18
42 | AGCCAGCAAUAUUACGUUGG | -3.52 ± 0.4 | -2.56 ± 0.23
43 | AGCGAGCAAUAUUACGAACC | -2.18 ± 0.14 | -0.856 ± 0.15
44 | AGCGAGCAAUAUUACGAAGA |  | -2.72 ± 0.34
45 | AGCGAGCAAUAUUACGACUA | -0.953 ± 0.37 | -1.03 ± 0.31
46 | AGCGAGCAAUAUUACGACUG | -1.91 ± 0.15 | -0.973 ± 0.17
47 | AGCGAGCAAUAUUACGAGCG | -1.55 ± 0.14 | -0.201 ± 0.14
48 | AGCGAGCAAUAUUACGCAAC | -3.6 ± 0.27 | -2.63 ± 0.21
49 | AGCGAGCAAUAUUACGCAAG | -3.18 ± 0.4 | -2.43 ± 0.45
50 | AGCGAGCAAUAUUACGCGAA | -2.39 ± 0.36 | -1.21 ± 0.32
51 | AGCGAGCAAUAUUACGCGAG | -1.35 ± 0.22 | -3.05 ± 0.4
52 | AGCGAGCAAUAUUACGCGGA | -3.21 ± 0.21 | -2.45 ± 0.19

Row | Sequence | self-splicing fitness (ln) (30 °C) | self-splicing fitness (ln) (37 °C)
53 | AGCGAGCAAUAUUACGCGUG | -1.48 ± 0.098 | -1.65 ± 0.13
54 | AGCGAGCAAUAUUACGGGAU | -3.92 ± 0.28 | -2.76 ± 0.27
55 | AGCGAGCAAUAUUACGGGUA | -2.6 ± 0.21 | -0.993 ± 0.18
56 | AGCGAGCAAUAUUACGGUAG |  | -1.73 ± 0.22
57 | AGCGAGCAAUAUUACGUAGC | -2.83 ± 0.26 | -0.813 ± 0.27
58 | AGCGAGCAAUAUUACGUAGG | -3.4 ± 0.35 | -2.17 ± 0.22
59 | AGCGAGCAAUAUUACGUAUA | -3.86 ± 0.37 | -2.18 ± 0.29
60 | AGCGAGCAAUAUUACGUCAG | -4.3 ± 0.36 | -2.58 ± 0.29
61 | AGCGAGCAAUAUUACGUCCA | -2.59 ± 0.15 | -1.1 ± 0.15
62 | AGCGAGCAAUAUUACGUCGU | -3.82 ± 0.43 | -2.18 ± 0.36
63 | AGCGAGCAAUAUUACGUCUA | -1.92 ± 0.13 | -2 ± 0.11
64 | AGCGAGCAAUAUUACGUCUU | -2.73 ± 0.16 | -2.08 ± 0.18
65 | AGCGAGCAAUAUUACGUUUC | -4.07 ± 0.21 | -2.77 ± 0.18
66 | AGCUAGCAAUAUUACGAAAC |  | -1.95 ± 0.43
67 | AGCUAGCAAUAUUACGAAAU | -2.4 ± 0.15 | -1.83 ± 0.2
68 | AGCUAGCAAUAUUACGACUU | -0.59 ± 0.11 | -0.0618 ± 0.12
69 | AGCUAGCAAUAUUACGAUCG | -1.81 ± 0.16 | -0.102 ± 0.18
70 | AGCUAGCAAUAUUACGAUGG | -3.87 ± 0.27 | -2.05 ± 0.28
71 | AGCUAGCAAUAUUACGCACG | -0.605 ± 0.16 | -0.0907 ± 0.18
72 | AGCUAGCAAUAUUACGCAUA | -2.4 ± 0.12 | -1.22 ± 0.14
73 | AGCUAGCAAUAUUACGCAUU | -3 ± 0.19 | -1.48 ± 0.14
74 | AGCUAGCAAUAUUACGCCCG |  | -0.486 ± 0.32
75 | AGCUAGCAAUAUUACGCGUA | -3.08 ± 0.26 | -0.709 ± 0.18
76 | AGCUAGCAAUAUUACGGGAA | -3.13 ± 0.28 | -1.67 ± 0.22
77 | AGCUAGCAAUAUUACGGGCG | -0.507 ± 0.098 | -0.799 ± 0.15
78 | AGCUAGCAAUAUUACGGUGA | -1.81 ± 0.2 | -0.51 ± 0.2
